From patent US20040048305

Legend:
[1] = molecular target: T1, bovine myelin basic protein (biotinylated MBP, Amersham Biosciences), P02687
T1 chain: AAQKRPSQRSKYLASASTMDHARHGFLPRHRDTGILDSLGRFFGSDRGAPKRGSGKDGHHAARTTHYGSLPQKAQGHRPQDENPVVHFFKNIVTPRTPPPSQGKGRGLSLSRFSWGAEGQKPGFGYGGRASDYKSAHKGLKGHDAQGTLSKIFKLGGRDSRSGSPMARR

[2] = molecular target: T2, peptide 3: Biotin-KKRFSFKKSFKLSGFSFK-COOH
T2 chain: KKRFSFKKSFKLSGFSFK

B1: GST-14171 fusion protein (glutathione S-transferase fused to the N-terminus of a partial 14171 molecule, amino acid residues 1-350 of SEQ ID NO:2) (protein)
chain: MEGDGGTPWALALLRTFDAGEFTGWEKVGSGGFGQVYKVRHVHWKTWLAIKCSPSLHVDDRERMELLEEAKKMEMAKFRYILPVYGICREPVGLVMEYMETGSLEKLLASEPLPWDLRFRIIHETAVGMNFLHCMAPPLLHLDLKPANILLDAHYHVKISDFGLAKCNGLSHSHDLSMDGLFGTIAYLPPERIREKSRLFDTKHDVYSFAIVIWGVLTQKKPFADEKNILHIMVKVVKGHRPELPPVCRARPRACSHLIRLMQRCWQGDPRVRPTFQEITSETEDLCEKPDDEVKETAHDLDVKSPPEPRSEVVPARLKRASAPTFDNDYSLSELLSQLDSGVSQAVEGP
counts per minute at the two hour timepoint, 10 nM enzyme, 0.5 uM substrate [1]: about 21,000 cpm
phosphorylation of biotinylated MBP by soluble GST-14171 fusion protein [1]: phosphorylated MBP
signal-to-noise ratio at the two hour timepoint, 10 nM enzyme [1]: a signal-to-noise ratio of 13
substrate phosphorylation, [gamma-33P]ATP, streptavidin SPA beads [1]: strong phosphorylation of bovine myelin basic protein
counts per minute at the two hour timepoint, 10 nM enzyme, 0.5 uM substrate [2]: about 11,000 cpm
signal-to-noise ratio at the two hour timepoint, 10 nM enzyme [2]: a signal-to-noise ratio of 9
substrate phosphorylation, [gamma-33P]ATP, streptavidin SPA beads [2]: weak phosphorylation of the following peptide, named peptide 3
